Literature values as cited in patent US8168409B2, “Compositions and methods relating to anti-IGF-1 receptor antibodies” (Amgen Inc., priority 2004, dated 2012).

Molecular target: IGF-1R (Homo sapiens, UniProt P08069)
Details: biphasic binding; high affinity component

- Kd: ~0.2 nM
Substance: IGF-2: insulin-like growth factor 2, ligand of IGF-1R
